Data: US12723075B2, “Humanized antibodies directed against KCNK9” (The Johns Hopkins University, priority 2020, dated 2026)
Where a chain is given by its changes, count along the chain named.

Experiments:
human KCNK9 = target: T1, human KCNK9 (Homo sapiens, UniProt Q9NPC2); test: Flow cytometry binding to KCNK9-expressing HEK293 cells; conditions: for Binding affinity to human KCNK9 relative to parental murine monoclonal antibody: PE conjugate secondary antibody (FIG. 1B)
T1 construct: expressed in transfected cells; host or cells: HEK293 cells, stably transfected, tetracycline-inducible promoter
T1 sequence (Q9NPC2 whole entry): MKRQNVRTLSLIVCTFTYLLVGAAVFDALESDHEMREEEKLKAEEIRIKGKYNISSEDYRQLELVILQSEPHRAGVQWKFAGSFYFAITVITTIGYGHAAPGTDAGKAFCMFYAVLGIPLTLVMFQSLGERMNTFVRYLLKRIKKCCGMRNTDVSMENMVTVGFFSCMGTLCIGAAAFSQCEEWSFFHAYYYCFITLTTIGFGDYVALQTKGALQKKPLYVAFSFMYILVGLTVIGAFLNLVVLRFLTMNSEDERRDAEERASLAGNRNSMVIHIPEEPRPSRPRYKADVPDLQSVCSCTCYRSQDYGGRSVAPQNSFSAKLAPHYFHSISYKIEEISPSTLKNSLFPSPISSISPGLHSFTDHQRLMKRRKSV
Description: An anti-KCNK9 mouse monoclonal antibody having a VH amino acid sequence of SEQ ID NO: 1 and a VL amino acid sequence of SEQ ID NO: 2 (mu-mAb) was humanized using a method based on Queen et al., Proc. Natl. Acad. Sci. USA, 86: 10029-10033 (1989). The hybridoma antibody was sequenced after amplifying the antibody variable regions by RT-PCR with degenerate primers. The variable regions were fused with the human antibody IgG1 constant regions to produce a chimeric antibody. Antigen binding of the chimeric antibody was confirmed by staining of the KCNK9-expressing cells. HEK293 cells were stably transfected with KCNK9 expression vector under the tetracycline inducible promoter. After induction, the cells were incubated with various concentrations of chimeric KCNK9 antibody for 30 minutes, followed by secondary anti-human Fc FITC conjugate. Chimeric antibody binding was analyzed by flow cytometry. High affinity binding was confirmed with an EC50 of about 0.3 μg/mL (FIG. 1A).
After antibody sequence analysis and structure modeling, the murine antibody CDRs (SEQ ID NOs: 3-8) were grafted into human antibody VK3-11 and VH1-3 frameworks. Critical murine antibody framework residues that support CDR conformation were identified and introduced into the human frameworks. Five variants of the humanized VH sequences (VH1-5; SEQ ID NOs: 9-13) and three variants of the humanized VL variants (VL1-3; SEQ ID NOs: 14-16) were designed and synthesized. All of the variable regions were cloned into a human IgG1 expression vector. The VHs and VLs were cross-matched to generate 15 humanized KCNK9 antibody clones. All humanized antibodies were produced by transient transfection in 293 cells and purified by Protein A chromatography. Antigen binding of the humanized KCNK9 antibodies was characterized by immunofluorescence staining of KCNK9-expressing cells.

[1] = test system: BEN lung carcinoma xenografts; test: Pre-established BEN lung carcinoma xenografts in nude mice; assay type: in vivo; conditions: 4 mg/kg b.w. twice per week, established tumors, p<0.01 (FIGS. 6A-6D)
Method: Equal numbers of viable BEN cells (4×10^6 cells) were implanted into the flanks of nude mice. Humanized anti-KCNK9 monoclonal antibodies AF-H4L3, AF-H5L2, or control human IgG (4 mg/kg b.w.) were administered twice per week after tumor xenografts were established and palpable. Tumor volumes were then monitored during treatments using caliper measurements every alternate day (N=10 for each group).

[2] = test system: KCNK9-positive BT549 carcinoma cells; test: Cell viability, KCNK9-positive breast cancer cells; assay type: cell-based, human; conditions: BT549, KCNK9-positive (FIG. 5)
[3] = test system: KCNK9-expressing BEN lung carcinoma cells; test: Cell growth and viability assays (cell numbers, MTT, trypan blue exclusion); assay type: cell-based, human; conditions: 0.4 mg/mL (FIGS. 4A-4C)
Method: The cytotoxic effect of the AF-H4L3 and AF-H5L2 monoclonal antibodies was tested on KCNK9-expressing BEN lung carcinoma cells. Equal numbers of viable BEN cells were treated with AF-H4L3, AF-H5L2, or human IgG control (0.4 mg/mL). Cells were collected at indicated days after treatment for cell growth and viability assays.

[4] = test system: Human LX22 PDX-derived lung carcinoma cells; test: MTT cell viability in combination with PARP or CDK4/6 inhibitor; assay type: cell-based; conditions: 72 hours
Method: Inhibitors of poly-ADP ribose polymerase (PARP) and cyclin dependent kinases (CDK4/6) are FDA-approved and undergoing clinical testing for multiple solid tumors. It was investigated whether inhibiting the KCNK9 K^+ channel with huKCNK9 mAb sensitized cancer cells to these therapeutics. Human LX22 PDX-derived lung carcinoma cells were treated with the PARP inhibitor AZD2461 (100 μM)+/−huKCNK9 mAb (400 μg/ml) or with the CDK4/6 inhibitor palbociclib (0.5 μM)+/−huKCNK9 mAb (400 μg/ml) for 72 hours. Cell viability was then quantified by MTT assay. Statistical comparisons were performed by ANOVA and post-hoc Tukey test.

[5] = test system: KCNK9-negative MDA-MB-231 cells; test: Cell viability, KCNK9-negative cells; assay type: cell-based, human; conditions: MDA-MB-231, KCNK9-negative (FIG. 5)
[6] = test system: LX22 PDX small cell lung cancer cells; test: ADCC Reporter Bioassay with luciferase Jurkat effector cells; assay type: cell-based, human; conditions: six hours at 4° C. or 37° C. (FIG. 3)
Method: The capacity of the humanized KCNK9 AF-H5L2 monoclonal antibody to induce ADCC directed against LX22 PDX small cell lung cancer cells also was evaluated. ADCC assays were performed using the ADCC Reporter Bioassay Complete Kit (Promega #G7015). Human lung CA KCNK9+LX22 cells or CD20+ Raji cells (as positive control) were plated at 50,000 cells per well. On the following day, humanized afucosyl anti-KCNK9 (hu-AF-H5), hu-anti-CD20, or non-immune huIgG1 (as negative control) was added. 30 minutes later, FcγIIIa+ Jurkat effector cells expressing the vNFAT-luciferase ADCC reporter were added (300,000 cells/well). Cell mixtures were incubated for six hours at either 4° C. or 37° C. Cells were collected, solubilized, and luciferase activity was quantified as a biomarker of Jurkat cell activation.

B1: chimeric KCNK9 antibody: Murine anti-KCNK9 variable regions (SEQ ID NO: 1 and 2) fused with human antibody IgG1 constant regions (antibody, V domains shown)
VH: EVQLQQSGPELVKPGASVKTSCKASGYSFTGYYMYWVKQSPEKSLEWIGEINPSSGGTTYNQKFKAKATLTVDKSSSTAYMQLKSLTFEDSAVYYCARSGLRRRFYAMDYWGQGTSVTVSS
VL: DIVLTQSPASLAVSLGQRATVSCRASESVDSFGTTFMHWYQQKPGQPPKLLIYRASNLESGIPARFSGSGSRTDFTLTINPVEADDVATYYCQQSNKDPPTFGGGSKLEIK
modifications: human IgG1 constant regions lack entries; Mus
B1 was tested, and the “EC50 of binding to KCNK9-expressing HEK293 cells” value (human KCNK9; flow cytometry, 30 minutes incubation, anti-human Fc FITC secondary) was “about 0.3 μg/mL”.

B2: H4L3: Humanized KCNK9 IgG1 antibody clone, VH SEQ ID NO: 12 and VL SEQ ID NO: 16 (antibody, V domains shown)
VH: QVQLVQSGAEVKKPGASVKVSCKASGYSFTGYYMYWVRQAPGQRLEWMGEINPSSGGTTYNQKFKARVTLTVDKSASTAYMELSSLRSEDTAVYYCARSGLRRRFYAMDYWGQGTLVTVSS
VL: EIVLTQSPATLSLSPGERATLSCRASESVDSFGTTFMHWYQQKPGQPPRLLIYRASNLESGIPARFSGSGSRTDFTLTISSLEPEDFATYYCQQSNKDPPTFGGGTKVEIK
modifications: human IgG1 constant regions
B2 was tested, and the “Binding affinity to human KCNK9 relative to parental murine monoclonal antibody” value (human KCNK9) was “higher affinity than their parental KCNK9 murine monoclonal antibody”.

B3: H5L2: Humanized KCNK9 IgG1 antibody clone, VH SEQ ID NO: 13 and VL SEQ ID NO: 15 (antibody, V domains shown)
VH: B2 VH with M48I, V68A
VL: B2 VL with P47A, T89V
modifications: human IgG1 constant regions
With B3 the “Binding affinity to human KCNK9 relative to parental murine monoclonal antibody” value (human KCNK9) was “higher affinity than their parental KCNK9 murine monoclonal antibody”.

B4: AF-H5L2: Afucosyl version of H5L2 antibody generated using fut8−/− CHO cells (antibody, V domains shown)
VH: B2 VH with M48I, V68A
VL: B2 VL with P47A, T89V
B4 was tested, and the “Effect on tumor growth (tumor volume)” value [1] was “significantly attenuated tumor growth”, the “Effect on cell viability” value [2] was “inhibited the viability” and the “Activity compared between the two clones, cell growth and viability” value [3] was “comparatively more active”. For the same molecule, the “Effect on cell growth and viability” value [3] was “inhibited cell growth and viability”, the “Effect on cell toxicity induced by PARP inhibition” value ([4]; 400 μg/ml mAb + AZD2461 100 μM, MTT (FIG. 7A)) was “substantially augmented” and the “Effect on cell toxicity induced by CDK4/6 inhibition” value ([4]; 400 μg/ml mAb + palbociclib 0.5 μM, MTT (FIG. 7B)) was “substantially augmented”. The “Effect on cell viability” value [5] was “without effecting the viability” and the “ADCC induction (luciferase activity of Jurkat effector cells)” value [6] was “induced ADCC that was temperature dependent”.

B5: AF-H4L3: Afucosyl version of H4L3 antibody generated using fut8−/− CHO cells (antibody, V domains shown)
VH: B2 VH
VL: B2 VL
In the case of B5, the “Effect on tumor growth (tumor volume)” value [1] is reported as “significantly attenuated tumor growth” and the “Effect on cell growth and viability” value [3] is reported as “inhibited cell growth and viability”.
